The values that follow come from patent US11896644B2, “Inhibition of beta-arrestin oligomerization in tauopathy” (UNIVERSITY OF SOUTH FLORIDA, priority 2020, dated 2024).

One data set deals with β-arrestin2 oligomers (Rattus norvegicus, UniProt P29067). The following applies: BRET and co-immunoprecipitation; cited from earlier work. For orientation: Bioluminescence resonance energy transfer reports proximity on the nanometre scale.
For data set [1], the system named is tauopathy in tau P301S mice. Briefly: rAAV9 stereotaxic injection into hippocampus of 5-month old tau P301S mice. The format is in vivo. The method, then: Cells were fixed with 4% paraformaldehyde for 15 min at room temperature and washed with 0.2% triton in TBS and blocked using 3% BSA with 0.1% triton x-100 for 1 hr, incubated with primary antibodies for overnight at 4° C. and fluorescently labeled secondary antibodies for 45 min at room temperature. For immunohistochemistry, mice were perfused with PBS and fixed with 4% paraformaldehyde. 25-micron sections were blocked using normal goat serum for 1 h and incubated with primary antibodies at 4° C. overnight, followed by secondary antibody incubation for 1 h at room temperature prior to mounting. Images were captured with the Olympus FV10i confocal microscope (Tokyo, Japan), and the immunoreactivities were quantified using the Image J software (National Institutes of Health, Bethesda, MD). Immunoreactivities were quantitated from every 12th serial section through an entire hippocampus. In ICC and IHC experiments, all comparison images were acquired with identical laser intensity, exposure time, and filter. Adjustments to the brightness/contrast were applied equally to all comparison images. Regions of interest were chosen randomly, and investigators were blinded to experimental conditions during image acquisition and quantification.
Brain homogenates and cultured cells were lysed with RIPA buffer (50 mM Tris pH 7.4, 150 mM NaCl, 2 mM ethlenediaminetetraacetic acid, 1% NP-40, 0.1% sodium dodecyl sulfate) plus protease and phosphatase inhibitors. Proteins were extracted and centrifuged at 15000 rpm for 15 min at 4° C., and RIPA insoluble fractions were lysed with 5% SDS with 1% β-mercaptoethanol, 50 mM Tris-HCl pH 6.8, 12.5 mM EDTA, 10% glycerol, and 0.02% bromophenol blue. Supernatants were used for western blot analysis. supernatants were used for western blot analysis. co-IP experiments were carried out from NP40 lysates or indicated buffers with preclearing with IgG beads followed by IP with IgG beads alone or IgG beads+indicated antibodies, extensive washing (5×) with the original buffer, and Western blotting on SDS-PAGE. […]

The subject of data set [2] is tau turnover in Hela-V5-tau cells. Briefly: Cycloheximide chase of tau turnover in Hela-V5-tau cells. The format is cell-based. The note with it: cycloheximide 100 μg/ml. The text has this: FIGS. 4A to 4E show β-arrestin2 oligomerization is required for suppressing tau turnover. […] Data are shown as box plots or mean±SEM.
When DIV 18 tau P301S cortical primary neurons were transduced with either β-arrestin2 ΔIP6C or ΔIP6N lentivirus, an approximately 50% reduction in tau compared to control was evident (FIGS. 4A,4B), which represents a key finding relevant to both mechanism of action and potential therapeutic strategies. […] Also investigated was whether β-arrestin2 oligomerization is required for slowing tau turnover by disrupting oligomerization using these mutants in several models. […] To determine whether β-arrestin2 oligomerization status alters tau aggregation itself, filter-trap assays were performed from Hela-V5-tau cells transfected with β-arrestin2 variants, in which tau aggregates from detergent-soluble and-insoluble lysates were captured by cellulose acetate membranes and assessed by immunoblotting.

In another data set the test system is p62 autophagy flux. The following applies: primary neurons, rAAV9 mCherry-EGFP-p62.
The test system of another data set is activated GPCRs. The following applies: cited from earlier work.

β-arrestin2 oligomers, sequence (P29067 whole entry, the tested form may be a part): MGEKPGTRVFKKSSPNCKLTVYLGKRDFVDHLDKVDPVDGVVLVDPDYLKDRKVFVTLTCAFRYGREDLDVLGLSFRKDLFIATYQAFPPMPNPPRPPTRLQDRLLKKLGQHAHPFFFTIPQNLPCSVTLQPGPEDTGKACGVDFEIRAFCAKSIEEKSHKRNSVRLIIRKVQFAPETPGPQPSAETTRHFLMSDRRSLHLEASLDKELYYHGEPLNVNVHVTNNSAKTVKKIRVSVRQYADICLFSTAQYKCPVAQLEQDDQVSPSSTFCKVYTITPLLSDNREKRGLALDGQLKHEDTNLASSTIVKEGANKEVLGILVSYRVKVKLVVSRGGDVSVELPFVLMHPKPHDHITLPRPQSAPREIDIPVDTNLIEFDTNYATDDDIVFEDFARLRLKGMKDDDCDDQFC
Text for p62 autophagy flux: To directly test this hypothesis, the mCherry-EGFP-p62 autophagy flux reporter was used. This reporter takes advantage of the sensitivity of GFP to low pH (which quenches the signal) and the insensitivity of mCherry to low pH. Therefore, colocalized red and green puncta are indicative of non-lysosomal p62 at steady-state.

B1: β-arrestin2 ΔIP6N: β-arrestin2 N-terminal domain mutant (K158A, K161A, and R162A), incapable of forming oligomers; dominant negative (protein, UniProt P32121 1-409, looked up, variant K158A K161A R162A)
Beta-arrestin-2: MGEKPGTRVFKKSSPNCKLTVYLGKRDFVDHLDKVDPVDGVVLVDPDYLKDRKVFVTLTCAFRYGREDLDVLGLSFRKDLFIATYQAFPPVPNPPRPPTRLQDRLLRKLGQHAHPFFFTIPQNLPCSVTLQPGPEDTGKACGVDFEIRAFCAKSLEEASHAANSVRLVIRKVQFAPEKPGPQPSAETTRHFLMSDRSLHLEASLDKELYYHGEPLNVNVHVTNNSTKTVKKIKVSVRQYADICLFSTAQYKCPVAQLEQDDQVSPSSTFCKVYTITPLLSDNREKRGLALDGKLKHEDTNLASSTIVKEGANKEVLGILVSYRVKVKLVVSRGGDVSVELPFVLMHPKPHDHIPLPRPQSAAPETDVPVDTNLIEFDTNYATDDDIVFEDFARLRLKGMKDDDYDDQLC
modifications: GFP or YFP tag
notes: dominant negative
Take B1: the oligomer formation result with β-arrestin2 oligomers is on record as “incapable of forming oligomers”. In data set [1] (cells verified by GFP tags), the “tau levels in individual brain cells with verified expression” value is listed as “essentially undetectable”. Also, the HT7-immunoreactive tau entry in data set [1] (expressing neurons vs GFP-expressing control or non-infected neurons) is given as “significant reductions”. Also, the sarkosyl-insoluble tau entry in data set [1] (tau P301S mice, two months post injection, vs GFP control) is “markedly reduced”. Besides, in data set [2], the “tau turnover in cycloheximide chase” value was “enhancement of tau turnover”. Besides, the “ratio of mCherry only to total puncta” value in the data set with p62 autophagy flux was “significantly increased”. Also, the “binding to activated GPCRs” value in the data set with activated GPCRs is given as “bind to activated GPCRs with WT affinity”.
